Measurements taken from PMC9477280 (PLoS Pathogens, 2022).

B1: JWS-H4 (VHH)
VHH: SGGGLVQAGGSLRLSCTTSASIFSGYRMGWFRQAPGKQREFVASIADGQNTPYADSVMGRFTISRDNAKNTVYLQMSNLKPEDTAIYYCKSWGYTDWGQGTQVTVSS
notes: also called αInt-12; JWZ-5 (vector name)
B2: JVA-A1 (VHH)
VHH: SGGSVEAGDSLRLSCAASGRGFGDGALAWFRQAPGKEREYVAAVGHSGTDTYYADSVKGRFTISRDNAKNMGYLQMDSLRPDDTGVYYCALDLHLGQPGYDYWGQGTQVTVSS
notes: also called αTir-7; JVF-1 (vector name); not shown: thioredoxin, N-terminal, kept; E-tag, C-terminal, kept
B3: JVA-C8 (VHH)
VHH: SGGGLVQAGGSLRLSCAASGFTFVDYGIAWVRQAPGKEREGVSCVSTSNRSQWYADSVKGRFTISSDNAKNTVYLQMDNLKPEDTAVYYCTRIDVGDNCRDGGGYRGQGTQVTISS
notes: also called αTir-8; JVF-2 (vector name); not shown: thioredoxin, N-terminal, kept; E-tag, C-terminal, kept
B4: JVA-C9 (VHH)
VHH: TGGGLVQAGGSLRLSCVDSGRTFGDNAMGWFRQAPGKEREYVAAIGYNGDSTYYLNSVKGRFTISRDNAKNTLYLQMNSLQLEDTGVYICAAKTRVTTKEYDFWGQGTQVTVSS
notes: also called αTir-9; JVF-3 (vector name); not shown: thioredoxin, N-terminal, kept; E-tag, C-terminal, kept
B5: JVA-G1 (VHH)
VHH: SGGGLAQAGGSLKLSCVASGFTFADYAIGWFRQAPGKEREGVACISNSVGSTYYSDSVKGRVTISSDNVKKTVYLQMNSLKPEDTAFYYCALIDHGMNCRNSNGIHYWGKGTLVTVSS
notes: also called αTir-14; JVF-14 (vector name); not shown: thioredoxin, N-terminal, kept; E-tag, C-terminal, kept
B6: JVA-D4 (VHH)
VHH: TGGGLAQAGGSLRLSCATSGFTFADYAIGWFRQAPGKEREGVACISTSDNGQYSADSVKGRFTISKDNAKKTVYLQMNSLKPDDTAIYYCHLIDVGSNCRKGKDDGFWGQGTQVTVSS
notes: also called αTir-10; JVF-4 (vector name); not shown: thioredoxin, N-terminal, kept; E-tag, C-terminal, kept
B7: JVA-D11 (VHH)
VHH: SGGGLVQAGGSLRLSCAASGFTFNDYAKAWFRRAPGKEREGISAISSMGESTFYADSVKGRFTISSDSAKNTVYLQMNSLKPEDTAVYYCAADPTVKWGHVLREENYDYWGQGTQVTVVS
notes: also called αTir-12; JVF-8 (vector name); not shown: thioredoxin, N-terminal, kept; E-tag, C-terminal, kept
B8: JVB-C6 (VHH)
VHH: TGGGLVQPGGSLTLSCAASGFSITENAMGWARQVPGKGLEWVSLVYSGGNTYYAESIEGRFTISRDNAKNTVYLRMTSLKPEDTGVYYCAAREAVRVAGPPADVWGQGTQVTVSS
notes: also called αTir-1; JVG-1 (vector name); not shown: thioredoxin, N-terminal, kept; E-tag, C-terminal, kept
B9: JVB-G4 (VHH)
VHH: SGGGLVEAGGSLRLSCSASGRASGDGHLGWFGDGALAWFRQAPGKEREYVAAVGHSGTDTYYSDSVKGRFTISRDNAKSMGYLQMDNLRPDDTGIYYCALDLHLGQPGYDYWGQGTQVIVSS
notes: also called αTir-2; JVG-2 (vector name); not shown: thioredoxin, N-terminal, kept; E-tag, C-terminal, kept
B10: JVC-C6 (VHH)
VHH: SGGGLVQAGGSLRLSCAASGVTFVDYATGWFRQAPGKEREGIACISNGASGSFVVNSVKGRFTTSTDNAKNTAYLQMNDLKPEDTATYYCALLGRTGGHCTDPNEYSYWGQGTQVTVSS
notes: also called αTir-4; JVI-1 (vector name); not shown: thioredoxin, N-terminal, kept; E-tag, C-terminal, kept
B11: JVA-F6 (VHH)
VHH: SGGGLVQAGDSLRLSCVTSGRSFSEAAMGWFRQAPGKERELMTSIGWNGDRTYYADSVKGRFTISRDNAKNTVYLQMNGLTPNDTAVYYCAAAVRASKGYEYWGQGTQVTVSS
notes: also called αTir-11; JVF-7 (vector name); not shown: thioredoxin, N-terminal, kept; E-tag, C-terminal, kept
B12: JVC-D10 (VHH)
VHH: TGGLVQTGDSLTLSCVVSGRGFCDWAMAWFRQAPGKEREKVSAIGWSGQDTYYSEPAKGRFTISRDNAKNTVWLRMTNLKSEDTAVYYCAAATRAYADYDYWGQGTQVTVSS
notes: also called αTir-5; JVI-2 (vector name); not shown: thioredoxin, N-terminal, kept; E-tag, C-terminal, kept
B13: JVC-E5 (VHH)
VHH: TGGGTVQAGSSLRLSCTASGFTFTDAAMGWFRQAPGKEREFVAAINWDSANKYYADSVKGRFTISRDNAKNTVYLEMTALKPEDTADYICAGDAKLGHVATSDVWRFWGQGTQVTVSS
notes: also called αTir-6; JVI-3 (vector name); not shown: thioredoxin, N-terminal, kept; E-tag, C-terminal, kept
B14: JVB-G8 (VHH)
VHH: TGGGLVQAGGSLRLSCVASGFTFNDYVLTWFRQAPGKGREGVASISPAFGNTFYADSVKGRFTITSDSAKKQVCLQMNNLKSEDTAVYFCAADPTVNFGPVLRAENYRHWGQGTQVTVSS
notes: also called αTir-3; JVG-3 (vector name); not shown: thioredoxin, N-terminal, kept; E-tag, C-terminal, kept
B15: JVA-E10 (VHH)
VHH: SGGGLVQAGGSLRLSCVASGRTFSDYAMGWFRQAPGKEREFVAAISWNGGSTYYADSVKGRFTISRDNAKNTMYLQMNSLKSEDTAVYYCISEGRGLRQVKTATDWEYWGQGTQVTVSP
notes: also called αTir-13; JVF-12 (vector name); not shown: thioredoxin, N-terminal, kept; E-tag, C-terminal, kept
B16: JWU-H4 (VHH)
VHH: TGGGSVQPGGSLRLSCAPSGFSLAYYGVGWFRQAPGKEREALACISRFGDDTYYADSAKGRFTVSRDNAKNTVYLEMNNLKPEDTGVYYCAAGWVVVTDESCGSGDAYNYWGRGTQVTVSS
notes: also called JXA-5 (vector name); not shown: thioredoxin, N-terminal, kept; E-tag, C-terminal, kept
B17: JXE-B1 (VHH)
VHH: TGGGLVQAGDSLRLSCAASSGRNFSNYATGWFRQAPGKEQEFVASISRSGRSTYYADSAKGRFTISRDNARNTVYLQMNSLKPEDTADYYCAAHETQWPNGLGWVRGFYDLWGQGTQVTVSS
notes: also called JXK-1 (vector name); not shown: thioredoxin, N-terminal, kept; E-tag, C-terminal, kept
B18: JWU-F3 (VHH)
VHH: SGGGLVQPGGSLRLTCVSSLSDFRLTNMAWYRQTPGSERDVVAGISPNGITSYHASVQDRFNISRDNARKTLFLQMNSLKPEDSGVYYCNIRWGSLLPWGQGTQVTVSP
notes: also called JXA-1 (vector name); not shown: thioredoxin, N-terminal, kept; E-tag, C-terminal, kept
B19: JXF-C4 (VHH)
VHH: SGGGLVQAGGSLRLSCVAYGRTANTFKEYAMGWFRHNPGEDHEFVGGISQNGDEAYFDDSVKGRFTPSRDNAKNTMYLQMNSLRPEDTAAYYCVAQRSSERLVGDMYSAMDSWGKGTLVTVST
notes: also called αEspA-4; JXM-15 (vector name); not shown: thioredoxin, N-terminal, kept; E-tag, C-terminal, kept
B20: JYB-D1 (VHH)
VHH: TGGGLVQAGGSLRLSCAASGNTFSYTAMAWFRQAPGKQRELVARISSGRGPTKYADSVKGRFTISRDNTLNTVWLQMNDLKPEDTAVYFCNTLKYSGESSYIAGDSWGQGTQVTVSS
notes: also called αEspA-7; JYE-3 (vector name); not shown: thioredoxin, N-terminal, kept; E-tag, C-terminal, kept
B21: JYB-B1 (VHH)
VHH: TGGGLVQAGGSLRLSCAISGFSLGDYAIGWFRQAPEKEREGVAFSGSLGNTYYPDSMKGRFTISRDDAENAVYLEMKNLKPEDTAVYRCTSGGTFDAVVLGLSTYWGQGTQVTVSS
notes: also called αEspA-5; JYE-1 (vector name); not shown: thioredoxin, N-terminal, kept; E-tag, C-terminal, kept
B22: JYB-H4 (VHH)
VHH: SGGGLVQPGGSLRLSCAASGVTLEYYAIGWFRQVPGKEREGVSCISTSGAGTNYADSVKGRFTISKDNAKNTVYLQMNSLKPEDTAVYYCAARDFTEVPIGGCEWEYDYWGQGTQVTVSS
notes: also called αEspA-8; JYE-4 (vector name); not shown: thioredoxin, N-terminal, kept; E-tag, C-terminal, kept
B23: JYB-H6 (VHH)
VHH: TGGGLVQPGGSLRLSCVASGFILDAYTIGWFRQAPGKEREGVASINGSGFSTNYADSVKGRFTISRDNAKNTVWLQMNSLKPEDTAVYYCAAALGLLTPRLESTPFDDWGQGTQVTVSS
notes: also called αEspA-9; JYE-5 (vector name); not shown: thioredoxin, N-terminal, kept; E-tag, C-terminal, kept
B24: JXF-H9 (VHH)
VHH: SGGGLAQTGGSLRLSCAASGFRLEYYAVGWFRQAPGKEREGVSCLSGSDGSTYNAEFAKGRFTISRDDAKNTVYLLMNSLKPEDTAVYYCAVAGPSDYQCDLGTRWYHRWGQGTVVTVSA
notes: also called αEspA-3; JXM-12 (vector name); not shown: thioredoxin, N-terminal, kept; E-tag, C-terminal, kept
B25: JYB-B8 (VHH)
VHH: TGGGLVQPGGSLRLSCAASGFTFSTYWMYWVRQAPGKGLEWVSTIDTGGSDTYYADSVKGRFTISRDNVKNTLYLQMDNLKPEDTALYYCGSSRDIVIVTTLRDFDYWGQGTQVTVFS
notes: also called αEspA-6; JYE-2 (vector name); not shown: thioredoxin, N-terminal, kept; E-tag, C-terminal, kept
B26: JXF-D8 (VHH)
VHH: SGGALVQPGGSLRLSCAASGINLDYYAIGWFRQAPGKERKGVSCISHVDDDRIYYSDSVKGRFTISRDNAKNTVYLQMNSLEPEDTAVYYCATAGPSDYPCDLELWTYRRWGQGTQVTVSS
notes: also called αEspA-2; JXM-8 (vector name); not shown: thioredoxin, N-terminal, kept; E-tag, C-terminal, kept
B27: JXF-D7 (VHH)
VHH: SGGGLVQTGGSLRLSCSASGFALEYYAVGWFRQAPGKEREGVSCFSGSDGSKFHAQFVKGRFTISLDKEKNTVDLTMNNLKPEDTAVYYCAVAGPSDHQCDLGMTWYHRWGQGTQVTVSS
notes: also called αEspA-1; JXM-6 (vector name); not shown: thioredoxin, N-terminal, kept; E-tag, C-terminal, kept
B28: JWT-C1 (VHH)
VHH: SGGLVQPGGSLRLSCAASGFTLANSAIGWFRQAPGKGREAVSCISTSAGTTNYASSVKGRFTTARDNAKNMAYLQMDNLKSGDTGVYECAAGWSIDCSGYILPAADVWGQGTQVTVSS
notes: also called αInt-13; JWZ-7 (vector name)

target: T1, MC1061 expressing EHEC intimin (Escherichia coli O157:H7 EDL933 (EHEC), UniProt P43261); assay: ELISA; dilution ELISA with intimin displayed on the surface of E. coli MC1061 as antigen; soluble thioredoxin/VHH/E-tag; EC50 estimates (apparent affinity); conditions: one partner purified
T1 construct: also called E. coli 1061/pInt (EHEC); EHEC intimin expressed on the surface of strain MC1061

B1: binds.

target: T2, MC1061 /EPEC intimin (Escherichia coli O127:H6, JPN15 …, UniProt P19809); assay: as above; conditions: one partner purified
T2 construct: also called E. coli 1061/pInt (EPEC); EPEC intimin expressed on the surface of strain MC1061

In the case of B1, the EC50 is reported as 10000 pM.

target: T3, EPEC Tir (enteropathogenic E. coli (EPEC), UniProt B7UM99); assay: ELISA; capture dilution ELISA; plate coated with 5 μg/mL of a non-competing VHH (no thioredoxin, no E-tag), antigen at 1 μg/mL captured for 1 h at 37°C (S1 Fig c-d: EPEC Tir, REPEC Tir); thioredoxin/VHH/E-tag from 125 nM in 1:5 serial dilutions; HRP anti-E-tag; EC50 estimates (apparent affinity); trace = EC50 >125 nM; conditions: both partners purified
T3 construct: also called GST-tagged EPEC Tir; recombinant his-tagged Tir

Compared with B2, B3 is 50-fold lower in EC50: 10000 pM for the first, 200 pM for the second. The second is the more potent here.

First: B4
Second: B5
The EC50 of the first is 25-fold higher: 5000 pM for the first, 200 pM for the second. The second is the more potent here.

Compared with B6, B7 is 2.5-fold lower in EC50: 500 pM for the first, 200 pM for the second. The second is the more potent here.

First: B8
Second: B9
The EC50 of the first is 500-fold higher: 50000 pM for the first, 100 pM for the second. The second is the more potent here.

Going from B10 to B11, the EC50 rises from 200 pM to 25000 pM (120-fold).

B12 and B13 are the same in EC50: 200 pM for the first, 200 pM for the second.

B14 and B15 are the same in EC50: 200 pM for the first, 200 pM for the second.

target: EPEC flagella (Escherichia coli O127:H6 E2348/69 (EPEC), UniProt B7USU2); assay: ELISA; dilution ELISA; purified antigen coated directly on Nunc Maxisorp wells, typically 1 μg/mL in PBS overnight at 4°C, blocked with 4% milk in PBS 0.1% Tween; thioredoxin/VHH/E-tag from 125 nM in 1:5 serial dilutions, 1 h 37°C; detected with HRP anti-E-tag; EC50 estimates (apparent affinity); Trace = EC50 >125 nM, poor but detectable; conditions: both partners purified

Going from B16 to B17, the EC50 falls from 10000 pM to 100 pM (100-fold).

For B18, the EC50 was 200 pM.

target: C. rodentium EspA (Citrobacter rodentium ICC168 (parent of …, UniProt D2TKE3)); assay: as above; conditions: both partners purified

Compared with B19, B20 is 4.3-fold higher in EC50: 700 pM for the first, 3000 pM for the second. The first is the more potent here.

Compared with B21, B22 is 1.7-fold higher in EC50: 300 pM for the first, 500 pM for the second.

First: B23
Second: B24
The EC50 of the first is 2.3-fold lower: 300 pM for the first, 700 pM for the second.

B25 and B26 are the same in EC50: 700 pM for the first, 700 pM for the second.

Work on B27 yielded an EC50 of 700 pM.

target: T4, EHEC intimin (Escherichia coli O157:H7 EDL933 (EHEC), UniProt P43261); assay: as above; conditions: both partners purified
T4 construct: also called recombinant intimin (EHEC)

With B28 the EC50 was 500 pM.
